Assay results taken from US10836808B2, “Binding-triggered transcriptional switches and methods of use thereof” (The Regents of the University of California, priority 2015, dated 2020).

B1: soluble TRAIL: an inducer of apoptosis and a cancer therapeutic (protein, UniProt P50591 39-281, looked up)
extracellular domain: TNELKQMQDKYSKSGIACFLKEDDSYWDPNDEESMNSPCWQVKWQLRQLVRKMILRTSEETISTVQEKQQNISPLVRERGPQRVAAHITGTRGRSNTLSSPNSKNEKALGRKINSWESSRSGHSFLSNLHLRNGELVIHEKGFYYIYSQTYFRFQEEIKENTKNDKQMVQYIYKYTSYPDPILLMKSARNSCWSKDAEYGLYSIYQGGIFELKENDRIFVSVTNEHLIDMDHEASFFGAFLVG
modifications: extracellular domain
notes: an inducer of apoptosis and a cancer therapeutic

Assays:
gamma secretase = experiment: Chimeric Notch (anti-CD19 scFv/tTA) receiver cell GFP reporter with CD19 sender cells, with or without DAPT; assay type: cell-based, mouse; details: 1 mM DAPT, in the presence of CD19 sender cells
Source text: DAPT is a gamma secretase inhibitor. The data are expressed as GFP^+“receiver” cells.

[1] = tested on: HCT116 colon cancer cells; experiment: Sensitivity of cancer cell lines to recombinant TRAIL; assay type: cell-based; details: 1 to 200 ng/mL, 24 hours
Procedure: (§1) The cells were then harvested and stained with the live/dead stain, SYTOX Blue (Thermo Scientific #S34857) and the fraction of dead cells was determined by flow cytometry on a BD LSR II.

K562 cells = experiment: as above; assay type: cell-based; details: 1 to 200 ng/mL, 24 hours
Procedure: as §1

Molecule	GFP+ receiver cells (gamma secretase)	killing of cancer cell line [1]	killing of cancer cell line ([1]; listed as recombinant TRAIL)	induction of apoptosis in cancer cell line (K562 cells)	induction of apoptosis in cancer cell line (K562 cells; listed as recombinant TRAIL)
C[C@H](NC(=O)Cc1cc(F)cc(F)c1)C(=O)NC(C(=O)OC(C)(C)C)c1ccccc1 (some centres unmarked) [DAPT]	at control, untreated levels	–	–	–	–
B1	–	effective at killing	sensitive to low level TRAIL treatment	does not induce apoptosis even at high doses	insensitive to TRAIL treatment
